Measurements: PMC5880276

Target: HpiC1
Assay: crystal structure

stoichiometry N: 2
Substance: HpiC1 (enzyme)
